From article PMC11774494

Target: 17b (CD4-induced human monoclonal antibody)
Experiment: flow cytometry of transfected 293T cells: staining with 10 μg/ml 17b with or without sCD4-183, detection with APC anti-human IgG F(ab')2, arithmetic mean APC fluorescence of live (propidium iodide negative) single cells; 'All titrations …
Conditions: sCD4-183 at 0, 0.078125, 0.3125, 1.25, 5, 20, 80 μM (row value in value_extra.sCD4_183_uM), 20 min staining at room temperature, CAUTION: 17b staining of cell-surface trimers with sCD4, mostly reports trimer opening, normalized per Env, one titration each. Higher = more 17b staining of cell-surface Env. 17b's epitope is exposed, numbering: unknown, sequence starts at 1
[1] = AUC over sCD4-183 0-80 μM, parent: 0.907, scale: area under the normalized MFI curve, log10 x-axis
[2] = sCD4-183 0 μM, parent: 0.0187, scale: normalized MFI
[3] = sCD4-183 0.078125 μM, parent: 0.0465, scale: normalized MFI
[4] = sCD4-183 0.3125 μM, parent: 0.0578, scale: normalized MFI
[5] = sCD4-183 1.25 μM, parent: 0.0973, scale: normalized MFI
[6] = sCD4-183 5 μM, parent: 0.198, scale: normalized MFI
[7] = sCD4-183 20 μM, parent: 0.585, scale: normalized MFI
[8] = sCD4-183 80 μM, parent: 1, scale: normalized MFI

HIV-1 JR-CSF envelope glycoprotein gp160 (Env), P20871 JR-CSF_I309A
screen value [1]: 3.03
screen value [2]: 0.326
screen value [3]: 0.555
screen value [4]: 0.777
screen value [5]: 0.912
screen value [6]: 0.974
screen value [7]: 0.97
screen value [8]: 1

HIV-1 JR-CSF envelope glycoprotein gp160 (Env), P20871 JR-CSF_F210A
screen value [2]: 0.0285
screen value [3]: 0.184
screen value [4]: 0.319
screen value [5]: 0.527
screen value [6]: 0.908
screen value [7]: 1
screen value [8]: 0.997

HIV-1 JR-CSF envelope glycoprotein gp160 (Env), P20871 JR-CSF_D167A
screen value [1]: 2.23
screen value [2]: 0.0723
screen value [3]: 0.181
screen value [4]: 0.357
screen value [5]: 0.663
screen value [6]: 0.945
screen value [7]: 0.977
screen value [8]: 1

HIV-1 JR-CSF envelope glycoprotein gp160 (Env), P20871 JR-CSF_I307A
screen value [1]: 3.25
screen value [2]: 0.46
screen value [3]: 0.691
screen value [4]: 0.871
screen value [5]: 0.946
screen value [6]: 0.908
screen value [7]: 1
screen value [8]: 0.979

HIV-1 JR-CSF envelope glycoprotein gp160 (Env), P20871 JR-CSF_N332A
screen value [1]: 1.33
screen value [2]: 0.0498
screen value [3]: 0.0842
screen value [4]: 0.124
screen value [5]: 0.2
screen value [6]: 0.456
screen value [7]: 0.802
screen value [8]: 1

HIV-1 JR-CSF envelope glycoprotein gp160 (Env), P20871 JR-CSF_P470A
screen value [1]: 1.6
screen value [2]: 0.119
screen value [3]: 0.215
screen value [4]: 0.298
screen value [5]: 0.381
screen value [6]: 0.492
screen value [7]: 0.645
screen value [8]: 1

HIV-1 JR-CSF envelope glycoprotein gp160 (Env), P20871 JR-CSF_Y177A
screen value [1]: 2.87
screen value [2]: 0.317
screen value [3]: 0.576
screen value [4]: 0.719
screen value [5]: 0.858
screen value [6]: 0.82
screen value [7]: 0.942
screen value [8]: 1

HIV-1 JR-CSF envelope glycoprotein gp160 (Env), P20871 JR-CSF_F176A
screen value [1]: 3.09
screen value [2]: 0.522
screen value [3]: 0.639
screen value [4]: 0.761
screen value [5]: 0.839
screen value [6]: 0.927
screen value [7]: 0.946
screen value [8]: 1

HIV-1 JR-CSF envelope glycoprotein gp160 (Env), P20871 JR-CSF_T303I
screen value [1]: 1.66
screen value [2]: 0.0358
screen value [3]: 0.0925
screen value [4]: 0.153
screen value [5]: 0.308
screen value [6]: 0.682
screen value [7]: 0.979
screen value [8]: 1

HIV-1 JR-CSF envelope glycoprotein gp160 (Env), P20871 JR-CSF_G324A
screen value [1]: 2.77
screen value [2]: 0.248
screen value [3]: 0.463
screen value [4]: 0.601
screen value [5]: 0.836
screen value [6]: 0.959
screen value [7]: 0.96
screen value [8]: 1

HIV-1 JR-CSF envelope glycoprotein gp160 (Env), P20871 JR-CSF_F317A
screen value [1]: 3.03
screen value [2]: 0.358
screen value [3]: 0.582
screen value [4]: 0.76
screen value [5]: 0.878
screen value [6]: 0.942
screen value [7]: 0.988
screen value [8]: 1

HIV-1 JR-CSF envelope glycoprotein gp160 (Env), P20871 JR-CSF_T202A
screen value [1]: 2.71
screen value [2]: 0.144
screen value [3]: 0.403
screen value [4]: 0.617
screen value [5]: 0.843
screen value [6]: 1
screen value [7]: 0.973
screen value [8]: 0.97
